Test [1] addresses β-galactosidase β-gal II from Bifidobacterium breve DSM 20213 (Bifidobacterium breve DSM 20213). The test can be described thus: SEC-MALS; Superdex S200 10/300 GL; 20 mM Tris pH 7.5, 150 mM NaCl, 1 mM β-mercaptoethanol, 5 mM EDTA; room temperature; 50 µL injected at 2.5 mg/mL; on-line MALLS and refractive index.
Test [2] concerns the target β-galactosidase β-gal I from Bifidobacterium breve DSM 20213 (Bifidobacterium breve DSM 20213). The test is described as above.

One may read the stoichiometry N as the number of molecules, sites or subunits per partner or assembly. On to “β-galactosidase β-gal II from Bifidobacterium breve DSM 20213 (enzyme)”, for which the stoichiometry N in test [1] worked out at 2.
Turning to “β-galactosidase β-gal I from Bifidobacterium breve DSM 20213 (enzyme)”, the stoichiometry N in test [2] is 2.

These data come from article PMC4121272, “Two β-Galactosidases from the Human Isolate Bifidobacterium breve DSM 20213: Molecular Cloning and Expression, Biochemical Characterization and Synthesis of Galacto-Oligosaccharides” (PLoS ONE, 2014).
